Experiment [1] addresses T1, Recombinant cynomolgus macaque LAG-3 ECD-His6 (cynomolgus macaque, UniProt P18627 24-433 (human entry)).
T1 construct: In-house generated; also called cyno LAG-3
T1 chain: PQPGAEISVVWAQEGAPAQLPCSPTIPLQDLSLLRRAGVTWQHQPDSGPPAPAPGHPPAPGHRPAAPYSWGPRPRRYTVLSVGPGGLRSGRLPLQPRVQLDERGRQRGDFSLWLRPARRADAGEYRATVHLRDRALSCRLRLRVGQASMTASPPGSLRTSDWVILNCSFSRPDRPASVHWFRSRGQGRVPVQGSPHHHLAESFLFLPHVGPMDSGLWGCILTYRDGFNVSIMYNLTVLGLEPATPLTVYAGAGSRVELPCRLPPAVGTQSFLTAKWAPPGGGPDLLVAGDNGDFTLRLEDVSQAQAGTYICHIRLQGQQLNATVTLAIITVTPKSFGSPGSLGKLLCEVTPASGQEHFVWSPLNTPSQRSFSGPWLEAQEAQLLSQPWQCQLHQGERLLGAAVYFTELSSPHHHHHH
Nature of the experiment: SPR Biacore T100 (orthologues at 37 C, human at 25 C). The procedure: (§1) Wild type fucosylated and afucosylated antibodies were compared for their ability to bind to recombinant human LAG-3 ECD with a C-terminal His6 (SEQ ID NO:51) using the Biacore™ T100 (GE Healthcare™). Protein A was immobilised on a CM5 chip by primary amine coupling. This surface was then used to capture the humanised antibodies. Recombinant human LAG-3 ECD-His6 was then passed over the captured antibodies at 32, 8, 2, 0.5 and 0.125 nM and regeneration was carried out using 50 mM NaOH. The binding curves were double referenced with buffer injection (i.e. 0 nM) and the data was fitted to the T100 analysis software using the 1:1 model. The run was carried out at 25° C., using HBS-EP as the running buffer.
(§2) Protein A was immobilised on a CM5 chip by primary amine coupling. This surface was then used to capture the humanised antibodies. In-house generated recombinant cynomolgus macaque and baboon LAG-3 ECD-His6 were then passed over the captured antibodies and regeneration was carried out using 50 mM NaOH. LAG-3 ECD-His6 was passed over at 16, 4, 1, 0.25 and 0.0625 nM. The binding curves were double referenced with buffer injection (i.e. 0 nM) and the data was fitted to the T100 analysis software using the 1:1 model. The run was carried out at 37° C. using HBS-EP as the running buffer.
Background: In SPR one partner is held on a chip, and binding of the other changes the refractive index at the surface.

Experiment [2] concerns the target T2, Recombinant baboon LAG-3 ECD-His6 (baboon, UniProt P18627 24-433 (human entry)).
T2 construct: In-house generated
T2 chain: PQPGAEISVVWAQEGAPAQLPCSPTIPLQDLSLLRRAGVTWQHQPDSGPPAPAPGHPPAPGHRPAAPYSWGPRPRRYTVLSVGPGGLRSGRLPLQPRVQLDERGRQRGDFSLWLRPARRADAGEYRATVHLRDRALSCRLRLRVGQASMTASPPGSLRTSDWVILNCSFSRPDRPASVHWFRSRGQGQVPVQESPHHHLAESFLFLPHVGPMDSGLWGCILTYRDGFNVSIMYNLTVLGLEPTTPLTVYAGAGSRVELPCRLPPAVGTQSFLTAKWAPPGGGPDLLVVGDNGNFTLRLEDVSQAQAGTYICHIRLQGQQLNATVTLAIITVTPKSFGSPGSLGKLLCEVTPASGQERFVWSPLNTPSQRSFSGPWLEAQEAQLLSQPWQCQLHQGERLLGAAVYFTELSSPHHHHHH
The description is as above. As to the method:
as §1, §2

Experiment [3] has as its target T1, Recombinant cynomolgus macaque LAG-3 …. Nature of the experiment: SPR Biacore T100, antibody captured on Protein A, LAG-3 ECD-His6 analyte 0.0625-16 nM, 1:1 model, 37 C. The procedure:
(§3) The binding cross reactivity of anti-LAG-3 humanised antibodies for both cynomolgus macaque (cyno) and baboon recombinant LAG-3 ECD-His6 (SEQ ID NOs 52 and 53, respectively) was assessed using the Biacore™ T100 (GE Healthcare).
as §2

Experiment [4] concerns the target T2, Recombinant baboon LAG-3 ECD-His6. The description is as above. The procedure: as §3, §2
In experiment [5] the target is T3, recombinant soluble human FcγRI (human, UniProt P12314 16-288, limits assumed).
T3 construct: also called CD64
The experiment can be described thus: SPR ProteOn XPR36, His-tagged receptor captured on anti-poly-histidine IgG, antibody analyte 8-2048 nM, equilibrium model, 25 C. The procedure:
(§4) A goat anti-poly-histidine IgG was immobilised on a GLM biosensor chip by primary amine coupling. This surface was used as a capture surface for the poly-histidine tagged human Fc gamma receptors. […] The goat anti-poly-histidine IgG surface was regenerated with 100 mM phosphoric acid between interactions. The run was carried out on the ProteOn XPR36 Protein Array Interaction System at 25° C. and using HBS-EP as running buffer. Data was analysed for each receptor separately, setting a global R-max and using the Equilibrium Model inherent to the ProteOn's analysis software. Control molecules were run at the beginning and the end of the set of samples to be tested to ensure comparability of results. Data was compared from two experiments and hybrid control antibodies used as controls between experiments.

In experiment [6] the target is T4, recombinant soluble human FcγRIIa R131 (human, UniProt P12318 36-218, limits assumed).
T4 sequence (looked up): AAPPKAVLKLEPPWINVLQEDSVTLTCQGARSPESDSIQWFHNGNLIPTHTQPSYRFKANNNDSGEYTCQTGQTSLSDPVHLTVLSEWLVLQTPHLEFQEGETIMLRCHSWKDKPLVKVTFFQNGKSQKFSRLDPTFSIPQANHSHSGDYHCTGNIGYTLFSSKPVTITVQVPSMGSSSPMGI
The experiment is described as above. The procedure:
as §4

The target in experiment [7] is T5, recombinant soluble human FcγRIIIa V158 (human, UniProt P08637 17-208).
T5 construct: also called FcγRIIIa valine V158; CD16
The experiment is described as above. The procedure: as §4

Experiment [8] addresses T6, recombinant soluble human FcγRIIIa F158 (human, UniProt P08637 17-208).
T6 construct: also called FcγRIIIa phenylalanine F158; CD16
Described as above. As to the method: as §4

T3 sequence (P12314 16-288 limits assumed): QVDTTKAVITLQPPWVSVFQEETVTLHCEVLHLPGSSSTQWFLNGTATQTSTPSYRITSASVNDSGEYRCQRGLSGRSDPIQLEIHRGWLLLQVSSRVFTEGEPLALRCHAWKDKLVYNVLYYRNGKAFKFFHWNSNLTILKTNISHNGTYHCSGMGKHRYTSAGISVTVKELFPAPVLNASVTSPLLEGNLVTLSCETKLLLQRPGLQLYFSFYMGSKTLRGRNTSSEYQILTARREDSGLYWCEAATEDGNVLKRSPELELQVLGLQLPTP
T6 sequence (P08637 17-208 limits assumed): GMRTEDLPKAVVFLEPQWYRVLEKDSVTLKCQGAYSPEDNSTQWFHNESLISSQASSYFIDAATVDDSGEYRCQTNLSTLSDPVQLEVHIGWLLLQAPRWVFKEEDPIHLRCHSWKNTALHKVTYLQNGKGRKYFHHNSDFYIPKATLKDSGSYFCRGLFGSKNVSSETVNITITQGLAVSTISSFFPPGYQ
T5 sequence (P08637 17-208 F176V limits assumed): as the sequence (P08637 17-208 limits assumed) above, with F160V counted along it

B1: IMP731 (antibody, human IgG1, kappa)
heavy: not shown
light: DIVMTQSPSSLAVSVGQKVTMSCKSSQSLLNGSNQKNYLAWYQQKPGQSPKLLVYFASTRDSGVPDRFIGSGSGTDFTLTISSVQAEDLADYFCLQHFGTPPTFGGGTKLEIKRTVAAPSVFIFPPSDEQLKSGTASVVCLLNNFYPREAKVQWKVDNALQSGNSQESVTEQDSKDSTYSLSSTLTLSKADYEKHKVYACEVTHQGLSSPVTKSFNRGEC
notes: Chimeric (murine variable domains, human IgG1/kappa constant regions); also called A9H12; chimeric antibody IMP731
Usually Kd stands for the concentration at which binding is half-saturated. As to B1, the “fold improvement in affinity against human recombinant LAG-3 ECD-His6” value (shortened to “fold improvement in affinity”) in experiment [1] and in experiment [2] was roughly 100 fold each time. The Kd amounted to 0.021 nM in experiment [3]; 0.019 nM in experiment [4]; 39 nM in experiment [5]; 2620 nM in experiment [6]; 406 nM in experiment [7]; 1750 nM in experiment [8].

B2: H5L7BW (antibody, human IgG1, kappa)
heavy: not shown
light: DIQMTQSPSSLSASVGDRVTITCKSSQSLLNPSNQKNYLAWYQQKPGKAPKLLVYFASTRDSGVPSRFSGSGSGTDFTLTISSLQPEDFATYYCLQHFGTPPTFGQGTKLEIKRTVAAPSVFIFPPSDEQLKSGTASVVCLLNNFYPREAKVQWKVDNALQSGNSQESVTEQDSKDSTYSLSSTLTLSKADYEKHKVYACEVTHQGLSSPVTKSFNRGEC
modifications: afucosylated: no fucose on the core carbohydrate structure attached to Asn297
notes: Same plasmids as H5L7, expressed in the BioWa POTELLIGENT (FUT8 knock-out CHO) cell line; also called afucosylated antibody H5L7BW; afucosylated H5L7
Regarding B2, the “fold improvement in affinity” value in experiment [1] and in experiment [2] was 10 fold throughout. The Kd in experiment [3] was found to be 0.021 nM; in experiment [4], 0.024 nM; in experiment [5], 26.4 nM; in experiment [6], 1490 nM; in experiment [7] it was 21.8 nM; in experiment [8], 81.1 nM.

B3: H5L7 (antibody, human IgG1, kappa)
heavy: not shown
light: DIQMTQSPSSLSASVGDRVTITCKSSQSLLNPSNQKNYLAWYQQKPGKAPKLLVYFASTRDSGVPSRFSGSGSGTDFTLTISSLQPEDFATYYCLQHFGTPPTFGQGTKLEIKRTVAAPSVFIFPPSDEQLKSGTASVVCLLNNFYPREAKVQWKVDNALQSGNSQESVTEQDSKDSTYSLSSTLTLSKADYEKHKVYACEVTHQGLSSPVTKSFNRGEC
notes: Humanised IgG1/kappa of A9H12 (IMP731); also called fucosylated H5L7; non-ADCC enhanced variant H5L7
On to B3, for which the “fold improvement in affinity” value in experiment [1] and in experiment [2] was 10 fold each time. The Kd was 0.017 nM in experiment [3]; 0.022 nM in experiment [4]; 26.3 nM in experiment [5]; 792 nM in experiment [6]; 236 nM in experiment [7]; 752 nM in experiment [8].
